Assay: label from the status in PepcDB records

Sequence	protein production
MSQEQRMQKTFEVENHLGYRILRWVLLVALLSGILMSAVQVVLDAKRVSAELERDAAQTLAMVEDSATQAVFSIDDTLAQQVVDGLFALEPIHMAKITHPDGDELGDRLRPLQDSPFRPLTDPIFGQVREYRESLTRGSNPDLVYGYLEVHYDTAPYARTWLGRALVTFASGIALALILGIVLFVVFHLLLTRPLLRIVQSVKKVDPAHPDDRLVSIPEGHRADELGLWVNATNNLLVAIGDTQKKHREAEDRVTRLARYDTLTGLPSRDAFMEDLQGAIERAQEGHSSIALMVCGIDDFKSVNEQCGFRTGDTILQTVASRLTANLSSDRFNVARLGSDQFVIVEKHLRDGFQAAETAEKVLATIGSPINSGNHRISMTATLGISLFPSDADQADRLLQSAEQTMALAKQTGHNHFQFYVASIDKEIRERKQMEKDLAQALANHEFHLVYQPQINLETRRVIGAEALLRWEHPEHGMIPPDLFIPVAEANGSIVEIGQWVLDQACWQAARWASEGTHLRIAVNLSAVQLRQESIVDDILNTLKRHNIPAGRLELEVTETSFMTNLTDAVAKLHRLHRAGISIAVDDFGTGYSSLTYLKQMPVQHLKIDKQFIRDLLINEEDTRIANTIIDLGKSLNLTVVAEGVETAEQEYYLSQRGCALAQGYFFSKPLLPRDFANFVQTFHARIVENNA	failed
MSQFAINIMFVGGSFLLYIAIAVWAKAGSTSDFYVAGGGVHPITNGAAIGADWMSAASFISMAGLIAAGGYANSTFLMGWTGGYVLLAMLLAPYLRKFGKFTVPEFIGDRYYSANARLVAVICLIVASVTYVIGQMAGAGVAFSRFLEVDATTGLIIAAVVVFVYAVLGGMKGITYTQVAQYCVLIVAYTIPAVFISIQLTGNPIPGLGMFSTHTDSGLPLLEKLNQVITDLGFNEYTADVDNKLNMVLFTLSLMIGTAGLPHVIIRFFTVPKVADARWSGGWALVFIALLYLTAPAVASMARLNLMTTIYPDGTQAAPIEYDERPNWVKEWEVTGLIQFTDKNEDGRIQLYNDVPAFEAEAQARGWNGNELVVNRDILVLANPEIANLPGWVIGLIAAGGLAAALSTAAGLLLAISSAVSHDLIKGRFNPSISDKGELMAARISMAVAIVVATYLGANPPGFAAQVVALAFGIAAASLFPALMMGIFSKRVNNVGATLGMLSGLLFTLIYIFVYKGWLFIPGTNNLPDTPENWVLGISPLSIGAVGALVNFAVAFAVSKATAEPPVEIQELVESVRYPRGAGTAQDH	failed
MSQHLFTAFILTALAGLSTGIGSLIAFVTKHTNKTFLSVSLGFSAGVMIYVSMIEIFPTAQTILTKAMDKKSGSWLTVLAFFGGILLIAIIDKLIPSEENPHEIKTIEEEDQKPTKLMRMGLMTAIAIGIHNFPEGLATFISGLQDASIAIPIVIAIAIHNIPEGIAVSVPIYQATGSKKKAFTYSFLSGLAEPLGAIIGWFLLMPIMNNIVYGAIFSAVAGIMVFISLDELLPAAEEYGKHHLAIYGVISGMLIMAVSLLLFI	failed
MSQKIVILGSGESGVGAALLSKAKGYDTFVSDSSMITEAFIAELQQAGIAFEQGVHSEEKILSAQLIVKSPGIPEKAPIMKLIRSKAIEVISEIEFAYRHIHPGAKFIAITGSNGKTTTTLLTHHILAQLGYSVGLGGNIGTSLARQIIHEKKDVYVLELSSFQLDDMYTFKADVAVLLNITPDHLDRYEYKFENYTASKFRIFQNLTPADYYITYSEDSVIESYKKDHPVDARYVPVSLKQLYSAGAYSDEKTIQIHALDDTVVTCNTEEFPLQGKHNYINIMAALNAAVSIGADIHKSIASIKSFRNAPHRLEFVGSIYGVKFVNDSKATNVDSVWYALDSMKTPVVLIVGGVDKGNDYSQIEALVKEKVHTVVALGKDNSKVLSGFASMVSEIKEAHSMVEAIRIAHDSAKKGDTVLLSPACASFDLFKNYEDRGTQFRNLVIELAG	failed
MSQKRLSRVIYPGTFDPITNGHLDLIERAAQMFDEVIIAVAASPSKNTLFTLEERVEFARQVTSHLDNVSAKGFSGLLVDFAKAEKANVLIRGLRTTVDFEYEFGLTNMYRRLMPGLESVFLTPAEEHAFISSTLVREVAIHGGNVDEFVPAIVANALHQKKKI	failed
MSQLPTLIADLALILICAGVMTLLFKKLKQPLVLGYVVAGFLASPHMPYTPSVMDTANIKTWADIGVIFLLFALGLEFSFKKIVKVGGSAIIAACTIIFCMILLGIGVGMGFGWHRMDSLFLGGMIAMSSTTIIYKAFDDLGLRKKQFTGLVLSILILEDILAIVLMVMLSTMAVSHNFEGTEMLESIGKLLFFLILWFVVGIYLIPEFLKRCRKLMGEETLLIVSLALCFGMVVMAANTGFSAAFGAFIMGSILAETIEAESIDRLVKPVKDLFGAIFFVSVGMMVDPAMIIEYAIPIIVITIAVILGQATFGTFGVILSGKPLKTAMQCGFSLTQIGEFAFIIASLGVSLHVTSDFLYPIVVAVSVITTFLTPYMIRLAEPASSFVDAHLPASWRKFLMRYSSGSQTVLNHENLWKKLLLAMVRITVVYSIVSISIIALSFRFVVPFFKENLPHFWASLLGAVFIILCISPFLRAIMVKKNHSVEFMTLWHDNRANRAPLVSTIVIRIMIAALFVIFVISGLFKASIGLIIGVAVLAVLLMVWSRRLKKQSILIERRFFQNLRSREVRAEYLGEKKPEYAGRLLSHDLHLADLEIPGESTWAGKTLMELNLGKKYGIHIASILRGKRRINIPGGSVRLFPMDKIQVIGTDEQLNVFSSAMQSGAKIDWEMYEKGEMTLKQFIIDADSVFLGKTIRESGIRDKYHCMIAGVEREDGTLMVPDVNAPFEEGDVVWVVGEKENVYQLVDQKNEKIQVK	failed
MSQMMQMYQQVGPAQFSAMIGQFAPYFASIAPQFVELRPGYAEVTFPKRREVLNHIGTVHAIALCNAAELAAGTMTDASIPAGHRWIPRGMTVEYLAKATGDVRAVADGSQIDWQATGNLVVPVVAYVDDKPVFRAEITMYVSQA	not failed
MSQNLQETSQAYPRHRPGSHAGPKSLKVTPRATMYTFLPDNFSPAKPKPTKELRPLLCSAVLGLLLVLAAVVAWCYYSASLRKAERLRAELLDLNRGGFSIRNQKGEQVFRLAFRSGALDLDSCSRDGALLGCSRAADGRPLHFFIQTVRPKDTVMCYRVRWEEAVPGRAVEHAMFLGDAAAHWYGGAEMRTQHWPIRLDGQQEPQPFVTSDVYSSDAAFGGILERYWLSSRAAAIKVNDSVPFHLGWNSTERSMRLQARYHDTSYKPPAGRTAAPELSYRVCVGSDVTSIHKYMVRRYFNKPSRVPASEAFRDPIWSTWALHGRAVDQNKVLQFAQQIRQHRFNSSHLEIDDMYTPAYGDFNFDEGKFPNASDMFRRLRDAGFRVTLWVHPFVNYNSSSFGEGVERELFVREPTGRLPALVRWWNGIGAVLDFTHPEAREWFQGHLRRLRLRYNVTSFKFDAGEVSYLPRDFSTYRPLSDPSVWSRRYTEMAEPFFSLAEVRVGYQSQNISCFFRLVDRDSVWGYDLGLRSLIPAVLTVSMLGYPFILPDMIGGNAVPERTAGRQDGPGPERELYVRWLEVAAFMPAMQFSIPPWQYDAEVVAIAHKFAALRASLVAPLLLELAGEITDTGDPIVRPLWWIAPGDETAHRIDSQFLIGDTLLVAPVLEPGKQERDVYLPAGKWRSYKGELFDKTPVLLTDYPVDLDEVAYFTWAS	failed
MSQPTPAVRTFQDLILALQQYWAEQGCVVLQPYDMEVGAGTFHTATFLRAIGPETWNAAYVQPSRRPTDGRYGENPNRLQHYYQFQVVLKPNPENFQELYLGSLKHVGLDPLVHDIRFVEDNWESPTLGAWGLGWEVWLNGMEVTQFTYFQQAGGIECYPVTGEITYGLERLAMYLQGVDSVYDLVWADGPFGKVTYGDVFHQNEVEQSTYNFEHANVEKLFELFDFYESEAKRLIELDQPLPLPSYEMVLKASHTFNLLDARRAISVTARQQYILRVRTLARSVAQAYLLARAKLGFPMATPDLRDEVLAKLEAAQ	failed
MSQRKYFGTDGVRGEVGGPVINAAFALRLGYAAGRVLAREHREHASGRGRNRPQVVIGKDTRISGYMLESALEAGLSAAGIDVLLAGPVPTPAVAYLTRTLRLAAGIVISASHNPYQDNGIKFFSAHGMKLPDDIEAAIEQALDEPLGCVGSEELGRARRMADAQGRYIEFCKSTFPHDLDLNGLKLVVDAAHGAAYNVAPHVFRELGAEVHAIGVSPDGFNINKGVGALHPESLAEEVRARGADLGIALDGDADRLQMVDGTGRIYNGDELLYAIVRERMQRGPVAGVVGTLMTNYGLERQLQQIGVGFERANVGDRYVLEQMQARGWLYGGESSGHLLCLDCHTTGDGTIAALQVLTALRRADATLAEWVADLRMYPQKMINVPLAPGLDWKTHDGLARARGAVEAELAGRGRVLIRASGTEPKLRLMVEAEDEALAQASAQKLADSLGA	failed
MSQSQLLQKLASRLPLGVCVVDEHYQIIYWNEFFTDRLPTAKSDTQENNLLTLFPEAAKFLQKKINSVFVLNNASFSYWEHRPHVFDFSSSRPITGEETAMYQNIEFFPLDIEDHQVKTVCLIVQDVTELASYYQAQKCLSEQLEQEHTALSLLNKKLEAAQNQLLQSEKMVAIGQLAAGVAHEINNPIGFVNSNLQSLQDYNNKLLKLLNFYQKLTHKIGSVPYFTLEQDMLKRYQFEFICSDLPDLIRESIEGLDRVAVIVKSLKSFSHVDSSEWQYANVIEGIENTLKIAANQIKYKAVVLRNFQDNLPELYCQPMQLNQVFLNLLVNAAQAIEERGEISIDVSASDAEFIIVIRDTGSGIAASDLRKIFEPFYTTKLVGTGTGLGLSLSYSIVQKHKGEIKVSSVLGEGTAFTVILPILSPEDVA	failed
MSQSSDASEKEKPKEKKSQEELEKELDKELKKGGEPKTKKDDQIHKIGETFKAGHTNFTVNKVDRVQKGEYMNVGGAVNEETKTIKDDEERLIIEVTMENIGEDSISYNFIGFDLRDKNDQSVRPVFSIEEKGRILMGGTLVSGKKVTGVLSYVIPKGEQKHYTLVYNPFLADTNSSNTEERVKDDIDYLVKLDLEHHHHHH	not failed
MSQSSECARPHRRGFDFCASAVFLCTQRAQSVGGCAMRGCPLLLWRPETCQNPAPFCRGFAAQGFTAVSVVSRAVTKTTFFDENLIERVLWQFTMKEQRANAIPATCRYARYSANPTPTPRPVKINESDRTMNFEEKIATHYGHGNLTAAIRSGLQAQGITPEQASVEDLGPVDEFHIGGRAATVHFFDQIDLSETSKALDIGCGLGGAARYAAHSFGSQIEGIDLTPEYVETGGALCQWVGLSDKVNLSVASALSMPFESGDFDIAYMMHVGMNIEDKRALFKEVARVLKPGGTFAIYDIMRSNDEDLVYPVPWASSAETCCLAGPATYRAALEEGGFVVRQENDRRDFAIDFFEKMKKANAGQKSPPPLGLHVLMQQTTAEKIPNMIANLQAGRIKPVEIYAVKQ	failed
MSQSSKRKNDSVVETFKDIIPLTFGEEIGNAASHGAAALLTLFILPYAAVHSFNNGGTLESISVSVYVISIFMMFISSTIYHSMQNNTSHKYILRIIDHSMIYVAISGTYTPVLLSVVGGWLGWLVTILLWGTTLWGILYKSIATKVNHRLSLIVYLVMGWVGIIFLPIIIMRTSWWFIFFIFLGGLSYTIGAWFYAQKNKPYFHMIWHIFIVLASFLHMIGIFYFM	failed
MSQTLFWIAAACALAYLAMTARPASLMRSAVKTASVALLALMVLVSGGPVLLVLALALCALGDWLLSRETEATFMAGVGAFAAGHLAYVALFLTHPASDTGQLAAQWPLVAGLAALGLVMASLLAPRAGDLKGPVLAYVPIILGMGLAALTLPQAGVLAWVLPAAAAFIASDMILATEKFLLPPGHPALRLTPYLVWPLYWGAQMGFALALT	failed
MSQWTTVCKLDDILPGTGVCALVEQQQIAVFRPRNDEQVYAISNIDPFAQASVLSRGIVAEHQDDLWVASPLKKQHFRLYDGFCLEDGAYSVAAYDTQVTNGNVQISIADSDVAVDNSQPLPLEHHHHHH	not failed
MSRDLGRLLKIASNQMSTRFDIFAKKYDLTGTQMTIIDYLSRNKNKEVLQRDLESEFSIKSSTATVLLQRMEIKKLLYRKVSGKDSRQKCLKLTKKANKLETIILSYMDSDQSQMTSGLNKEEVVFLEKILKRMIESD	not failed
MSRDTVRPPCVHPGFARPLPARASLPFLGRVSPGDSSRRAGRDGRKWGMESGPAIFAGTVFALFGGGLLTWTVSRVRHRAPVAHDVNPVASATLAGLAAVSALVLGAWCFTHL	failed

— a protein production outcome set (Wang et al. 2014)
